Measured values from patent US8715676B2, “Production and uses of type I ribosome inactivating proteins” (priority 2008, dated 2014).
Where two headings read alike, the source gives them in different places.

Assays:
[1] = system: BT 474 human breast cancer cells; experiment: Cytotoxicity in cancer cells in vitro (TOX8 viability, 72 h); assay type: cell-based; details: TB474 (BT 474) cells
Method: (§1) Human breast cancer cells, MDA 231 and BT 474, were grown in tissue culture to assay for the concentration at which 50% of the cells are inhibited from growing (IC50). The cells were seeded in 96-well plates at 5000 cells per well and grown overnight in RPMI 1640 supplemented with 10% fetal bovine serum and 15 μg/ml insulin. The culture medium was replaced. The recombinant cucurmosin, natural cucurmosin and vinblastine were added to the cells at various concentrations. Likewise, the non-cancer cells, LO2 and lymphocytes were treated with these drugs at different concentrations. The cells were grown for an additional 72 hours and then 20 μl of TOX8 was added to each well. The cells were incubated another 8 hours at 37° C., 5% CO2 to allow time for the cells to metabolize the TOX8 indicator. Absorbance readings at 600 nm were taken of each well. Viability was indicated by a drop in absorbance at 600 nm readings.

[2] = system: MDA 231 human breast cancer cells; experiment: as above; assay type: cell-based
Method: as §1

[3] = system: LO2 non-cancer cells; experiment: Cytotoxicity in non-cancer cells in vitro (TOX8 viability, 72 h); assay type: cell-based
Method: as §1

[4] = system: lymphocytes (non-cancer cells); experiment: as above; assay type: cell-based
Method: as §1

[5] = system: HMEL tumors; experiment: Treating HMEL tumors in mice by tail vein injection; assay type: in vivo, NOD/SCID mice
Method: (§2) Human lung cancer cells, […] or A549, were used to induce tumor formation in backs of NOD/SCID mice (JAX, #001303). The cells were maintained in culture. In each experiment, 5 million cells were injected into the back of the mice. Tumors formed in 2 to 3 weeks. Tumor sizes were measured using a digital caliper and then areas calculated.
(§3) In one experiment, either 5 or 50 μg recombinant cucurmosin was injected into the HMEL tumors in 100 μl of saline solution on the days that the tumors were measured. Mouse 2 had tumors in both sides of its back which were each treated separately. Over the 18 day period, the mouse injected with no cucurmosin saw its tumor increase 267% (TABLE 2). […] Mouse 1 and 3 with HMEL tumors after 18 days intratumoral treatment (Table 2), were continually administered recombinant cucurmosin by tail vein injection using 50 μg of recombinant cucurmosin in 100 μl saline solution at day 0 (the same day as day 18 of intratumoral treatment) and day 5. […] The results of these tests are depicted in FIG. 1.

[6] = system: A549 tumors; experiment: Treating A549 tumors in mice, intratumoral injection; assay type: in vivo, NOD/SCID mice; details: for Tumor growth: Day 1 to Day 11
Method: as §2
In another group of mice, carrying tumors derived from A549 cells, 5 or 50 μg treatments of directly injected recombinant cucurmosin into the tumors was able to reduce tumors by 15 and 33%, respectively while the negative control saw the tumor grow 150% (TABLE 3).

[7] = system: HMEL tumors; experiment: Treating HMEL tumors in mice, intratumoral injection; assay type: in vivo, NOD/SCID mice; details: for Tumor growth: over 18 days
Method: as §2, §3

## CC[C@]1(O)C[C@@H]2CN(CCc3c([nH]c4ccccc34)[C@@](C(=O)OC)(c3cc4c(cc3OC)N(C)[C@H]3[C@@](O)(C(=O)OC)[C@H](OC(C)=O)[C@]5(CC)C=CCN6CC[C@]43[C@@H]65)C2)C1 [Vinblastine, reference compound]
[1]; Homo sapiens
  IC50: 26 nM
[2]; Homo sapiens, MDA-MB-231, MDA231 cells
  IC50: 25 nM
[3]
  IC50: 68 nM
[4]; Lymphocyte
  IC50: 73 nM

B1: Recombinant Cucurmosin: 297 amino acid pro-cucurmosin (SEQ ID 4), type 1 ribosome inactivating protein expressed in E. coli with C-terminal histidine tag (protein, listed as Cucurbita moschata)
chain: MNVRFDLSSATSSSYKTFIKNLREALPKDGKVYDIPVLLSTVMDSRRFILIDLVNYDGQSITAAIDVLNVYIVAYSTGTVSYFFQQVPAQAPKLLFKGTQQRTLPYTGNYENLQTAAKKLRENIELGLPALDSAITTLFHYNAEAAASALLVLIQTTSEAARFRYIELQIANNVGTKFKPSQTIISLENNWSALSKQIQIAKNKNGQFETPVILIDPQGNRVQITNVTSNVVTQNIKLLLNIGATVDTMAANDDVDEMTSGVPIRLSSCGHEMERKSVENGRHANYVSVLEHHHHHH
modifications: C-terminal His tag
[5]; 50 μg tail vein injection
  Toxic effects on the mice: no obvious toxic effects
[5]; Mouse 3, 50 μg tail vein at day 0 and day 5, seven days after initial injection
  Tumor size increase: 7%
[1]
  IC50: 22 nM
[1]; listed as recombinant cucurmosin
  IC50: > 20 nM
[2]; MDA231 cells
  IC50: 23 nM
[2]; MDA231 cells, listed as recombinant cucurmosin
  IC50: > 20 nM
[6]; 5 μg directly injected into the tumors
  Tumor reduction: 15%
[6]; 50 μg directly injected into the tumors
  Tumor reduction: 33%
[6]; Mouse 2, 5 μg intratumoral, Day 1
  Tumor Size: 34.7 mm^2
[6]; Mouse 2, 5 μg intratumoral
  Tumor growth: −15%
[6]; Mouse 2, 5 μg intratumoral, Day 3
  Tumor Size: 38.8 mm^2
[6]; Mouse 2, 5 μg intratumoral, Day 5
  Tumor Size: 42.4 mm^2
[6]; Mouse 2, 5 μg intratumoral, Day 7
  Tumor Size: 40.8 mm^2
[6]; Mouse 2, 5 μg intratumoral, Day 9
  Tumor Size: 39.5 mm^2
[6]; Mouse 2, 5 μg intratumoral, Day 11
  Tumor Size: 29.5 mm^2
[6]; Mouse 3, 50 μg intratumoral, Day 1
  Tumor Size: 100.6 mm^2
[6]; Mouse 3, 50 μg intratumoral
  Tumor growth: −33%
[6]; Mouse 3, 50 μg intratumoral, Day 3
  Tumor Size: 104.1 mm^2
[6]; Mouse 3, 50 μg intratumoral, Day 5
  Tumor Size: 108.6 mm^2
[6]; Mouse 3, 50 μg intratumoral, Day 7
  Tumor Size: 113.1 mm^2
[6]; Mouse 3, 50 μg intratumoral, Day 9
  Tumor Size: 78.8 mm^2
[6]; Mouse 3, 50 μg intratumoral, Day 11
  Tumor Size: 67.3 mm^2
[3]
  IC50: 1200 nM
[4]
  IC50: 2500 nM
[7]; 5 or 50 μg intratumoral, 18 days
  Side-effects in mice: did not suffer any noticeable side-effects
[7]; Mouse 2 left, 5 μg intratumoral, Day 1
  Tumor Size: 39.4 mm^2
[7]; Mouse 2 left, 5 μg intratumoral, Day 3
  Tumor Size: 33 mm^2
[7]; Mouse 2 left, 5 μg intratumoral, Day 5
  Tumor Size: 23 mm^2
[7]; Mouse 2 left, 5 μg intratumoral, Day 8
  Tumor Size: 19.7 mm^2
[7]; Mouse 2 left, 5 μg intratumoral, Day 15
  Tumor Size: 12.5 mm^2
[7]; Mouse 2 left, 5 μg intratumoral, Day 18
  Tumor Size: 0 mm^2
[7]; Mouse 2 left, 5 μg intratumoral
  Tumor growth: −100%
[7]; Mouse 2 right, 5 μg intratumoral, Day 1
  Tumor Size: 27.8 mm^2
[7]; Mouse 2 right, 5 μg intratumoral, Day 3
  Tumor Size: 24.8 mm^2
[7]; Mouse 2 right, 5 μg intratumoral, Day 5
  Tumor Size: 18.5 mm^2
[7]; Mouse 2 right, 5 μg intratumoral, Day 8
  Tumor Size: 12.2 mm^2
[7]; Mouse 2 right, 5 μg intratumoral, Day 15
  Tumor Size: 0 mm^2
[7]; Mouse 2 right, 5 μg intratumoral, Day 18
  Tumor Size: 0 mm^2
[7]; Mouse 2 right, 5 μg intratumoral
  Tumor growth: −100%
[7]; Mouse 3 (largest tumor), 5 μg intratumoral
  Effect on tumor growth compared to the negative control: slow the tumor growth compared to the negative control
[7]; Mouse 3, 5 μg intratumoral, Day 1
  Tumor Size: 162.2 mm^2
[7]; Mouse 3, 5 μg intratumoral, Day 3
  Tumor Size: 158 mm^2
[7]; Mouse 3, 5 μg intratumoral, Day 5
  Tumor Size: 151.8 mm^2
[7]; Mouse 3, 5 μg intratumoral, Day 8
  Tumor Size: 186.7 mm^2
[7]; Mouse 3, 5 μg intratumoral, Day 15
  Tumor Size: 206.7 mm^2
[7]; Mouse 3, 5 μg intratumoral, Day 18
  Tumor Size: 231.2 mm^2
[7]; Mouse 3, 5 μg intratumoral
  Tumor growth: 43%
[7]; Mouse 4, 50 μg intratumoral, Day 1
  Tumor Size: 23.9 mm^2
[7]; Mouse 4, 50 μg intratumoral, Day 3
  Tumor Size: 12.2 mm^2
[7]; Mouse 4, 50 μg intratumoral, Day 5
  Tumor Size: 9.4 mm^2
[7]; Mouse 4, 50 μg intratumoral, Day 8
  Tumor Size: 0 mm^2
[7]; Mouse 4, 50 μg intratumoral, Day 15
  Tumor Size: 0 mm^2
[7]; Mouse 4, 50 μg intratumoral, Day 18
  Tumor Size: 0 mm^2
[7]; Mouse 4, 50 μg intratumoral
  Tumor growth: −100%
[7]; either 5 or 50 μg intratumoral, 18 day period
  Effect on tumors smaller than 40 mm^2: completely abrogated
